The target in experiment [1] is HLA-DR on solid tumor cell lines C32, HT-144 (melanoma) and OVCAR-5 (ovarian) (human). In words: cell-based or functional assay.
Experiment [2] addresses HLA-DR on solid tumor cell lines C32, HT-144 (melanoma) and OVCAR-5 (ovarian) (human, UniProt P01903 26-254; P01911 30-266). In words: cell-based or functional assay.

Here are results for three molecules from patent publication US6894149 (PROTEIN DESIGN LABS, dated 2005).

In experiment [1], 1D10 (antibody) came in with a specific cell death in C32 and HT-144 cells, 24 hour assay, 10 µg/ml of 5 to 15%.
Still for that read-out and setting: with “L227 (anti-HLA-DR β, ATCC HB-96) (antibody)” the figure was 40%.

B1: K8-355 (antibody, mouse IgG1, V domains shown)
VH: QIQLVQSGPELKKPGETVKISCKASKYTFTNYGMNWVKQAPGKVLRWMGWINTYTGEPTYADDFKGRFAFSLETSASTAYLQINNLKNEDMATYFCATTTLITYYFDYWGQGTTLTVSS
VL: DIQMTQTTSSLSASLGDRVTISCRSSQDISKYLNWYQQKPDGTVKLLIYYTSRLHSGVPSRFSGSGSGTDYSLTISNLEQEDIATYFCQQGDTVPWTFGGGTKLEIK
For B1, the “specific cell death in C32 and HT-144 cells, 24 hour assay, 10 µg/ml” value in experiment [2] was approximately 40%.
